According to US20240165140A1, “MEDICATION FOR INHIBITING DNA-PKCS” (TSINGHUA UNIVERSITY, priority 2017, published 2024):
“Also recorded” adds a separate entry of the source.

Legend:
[1] = system: PCNA and DNA-PKcs protein in H1299-P53 and A549-NC tumor tissues; test: Immunofluorescence of PCNA and DNA-PKcs in tumor tissue, mouse tumor model with normal P53 function; type: in vivo, nude mice; conditions: H1299-P53 and A549-NC tumors of Example 12; quantitative immunofluorescence
Procedure: (§1) Tumor-bearing nude mice were randomly divided into four groups with 6 to 8 animals for each group, and different drug treatments were performed. […] Tumor volume was measured every other day. 2 to 4 weeks after administration, the mice were sacrificed and the tumor tissue was removed for further use.
(§2) The tumor tissue removed in Example 12 was fixed and embedded, and then sectioned. PCNA (a marker molecule indicating the vigorous proliferation status of tumor cells) and DNA-PKcs protein in tumor tissues were stained by immunofluorescence technique, and were observed and imaged with a laser confocal microscope (Nikon A1). The experimental results are shown in FIG. 14A-14D, in which blue represents the nucleus of DAPI-stained cells, green represents the DNA-PKcs protein, and red represents the PCNA protein. Taking the H1299-NC tumor tissue shown in FIG. 14A as an example, the first column on the left represents DNA-PKcs single staining, and the green area represents the DNA-PKcs protein expression level. The second column on the left represents the results of DNA-PKcs (green) merged with nucleus (blue), and the overlapping part is shown in cyan. The third column on the left represents PCNA single staining, and the red area represents the PCNA protein expression level, indicating the strength of tumor cell proliferation. […]

[2] = system: P53-deficient tumor cells (H1299-NC, A549-shP53); test: Cell colony formation, P53-deficient tumor cells; type: cell-based; conditions: Endostatin 10 μg/ml added 1 h before Etoposide 1 μM, 16 h; colonies after 14 days
Procedure: After the treatment, the cells were digested with trypsin, counted, and re-plated in a six-well plate with 1000 cells per well. The cells were cultured in a normal medium for 14 days to form cell colonies.

A549-NC tumor = test: Subcutaneous tumor growth in nude mice, A549-NC; type: in vivo
Procedure: as §1

A375 cells = test: CCK8 cell activity, melanoma A375; type: cell-based; conditions: A375 (P53 wild type); operation process as in Example 5
Procedure: First, a lentivirus kit (purchased from Shanghai Genepharma) was used to construct a P53 stably overexpressing H1299 cell line (H1299-P53) and a P53 stably knockdown A549 cell line […]. The P53 sequence targeted by the shRNA used to knock down P53 in A549 cells was 5′-[…]-3′ (SEQ ID NO: 4). Virus transfection and the construction of stable cell lines were performed according to the kit instructions. […] After treatment for 12 hours, the drug-containing medium was replaced with a normal medium and the cells were further cultured for 72 hours. Cell activity was measured according to the instructions of the CCK8 kit (Dojindo, Tokyo, Japan).
This example used two cell lines of another tumor type (melanoma), the MDA-MB-435S (P53 mutant) and A375 (P53 wild type) cell lines, to verify the regulatory function of Endostatin on the chemotherapeutic sensitivity of other types of tumor cells with different P53 status. Operation process was the same as in Example 5.

γH2AX = test: Immunoblotting of γH2AX level (DSBs damage repair); type: cell-based; conditions: H1299 and A549 cells; Endostatin 10 μg/ml pretreatment 1 h, Etoposide 10 μM 1 hour, then fresh medium
Source text: In this example, the level of γH2AX was used to reflect the degree of DSBs damage. Tumor cells (including H1299 and A549 cells) were divided into eight treatment groups.

H1299-NC tumor = test: Subcutaneous tumor growth in nude mice, H1299-NC; type: in vivo; conditions: Day 19, compared with control group, Endostatin 20 mg/kg i.p. once a day, Etoposide 2 mg/kg i.p. once every two days
Procedure: as §1

[3] = system: mRNA levels of BAX, NOXA, PUMA, and P21; test: Real-time PCR of pro-apoptotic molecules, tumor cells with normal P53 function; type: cell-based; conditions: H1299-P53, A549-NC; Endostatin 10 μg/ml added 1 h before Etoposide 1 μM, 16 h
Procedure: After the cells were treated as described above, the total RNA of the cells was extracted, and the relative changes in mRNA levels of BAX, NOXA, PUMA, and P21 in the cells were detected by real-time PCR.

H1299 and A549 cells = test: Annexin V-FITC/PI apoptosis by flow cytometry with DNA-PKcs siRNA knockdown; type: cell-based; conditions: Endostatin 10 μg/ml added 1 h before Etoposide (10 μM for H1299, 1 μM for A549, 16 h)
Procedure: In this example, tumor cells (including H1299 and A549 cells) were divided into eight treatment groups. In the first four groups, cells were transfected with control siRNA, and in the last four groups, cells were transfected with siRNA that specifically knocked down DNA-PKcs. The siRNA sequence of DNA-PKcs is: forward 5′-[…]-3′ (SEQ ID NO: 5), reverse 5′-[…]-3′ (SEQ ID NO: 6). The siRNA transfection method was performed according to the instructions of the transfection reagent Lipofectamine 2000. Then, in the eight groups, the cells were treated with drugs. […] Cells were collected and operations were performed according to the instructions of Annexin V-FITC/PI Apoptosis Detection Kit. Apoptosis was detected by flow cytometry. A549 cells were P53 wild-type cells, and H1299 cells were P53-deficient cells.

[4] = system: DNA-PKcs, PARP, γH2AX and Caspase-3 signaling pathways; test: Immunoblotting of DNA damage and apoptotic pathway, P53-deficient tumor cells; type: cell-based; conditions: H1299-NC, A549-shP53; Endostatin 10 μg/ml, Etoposide 10 μM 16 h, z-DEVD-fmk 10 μM; Endostatin and z-DEVD-fmk added 1 h before Etoposide
Source text: In this example, tumor cells (H1299-NC, H1299-P53, A549-NC, A549-shP53) were divided into six treatment groups.

[5] = system: PCNA and DNA-PKcs protein in H1299-NC and A549-shP53 tumor tissues; test: Immunofluorescence of PCNA and DNA-PKcs in tumor tissue, P53-deficient mouse tumor model; type: in vivo, nude mice; conditions: H1299-NC and A549-shP53 tumors of Example 12; quantitative immunofluorescence
Procedure: as §1, §2

H1299 mouse tumor model = test: Survival of H1299 tumor-bearing mice; type: in vivo; conditions: administration as in Example 12, stopped after 25 days
Procedure: as §1
H1299 and A549 cells were cultured in a vigorous and proliferative state, and tumor collection, grouping, and administration methods were the same as in Example 12. The administration was stopped after 25 days, and the survival of the mice was recorded daily, and the survival curve of the mice was plotted.

B1: Endostatin: recombinant natural human endostatin expressed by E. coli, from Protgen, SEQ ID NO: 2 (protein)
chain: MHSHRDFQPVLHLVALNSPLSGGMRGIRGADFQCFQQARAVGLAGTFRAFLSSRLQDLYSIVRRADRAAVPIVNLKDELLFPSWEALFSGSEGPLKPGARIFSFDGKDVLRHPTWPQKSVWHGSDPNGRRLTESYCETWRTEAPSATGQASSLLGGRLLGQSAASCHHAYIVLCIENSFMTASK
modifications: The amino acid sequence of natural human endostatin
Tumor cell proliferation (PCNA) and protein level of DNA-PKcs in tumor tissue [1]: could reduce the proliferation of tumor cells and reduce the protein level of DNA-PKcs; also recorded: did not enhance the inhibitory effect of Etoposide on tumor proliferation and the effect of Etoposide on the protein levels of DNA-PKcs
Effect on inhibition of tumor cell colony-forming ability by Etoposide [2]: could enhance the inhibitory effect of Etoposide on tumor cell colony-forming ability
tumor suppression rate (A549-NC tumor; Day 27, compared with control group, Endostatin 20 mg/kg i.p. once a day, Etoposide 2 mg/kg i.p. once every two days): 40.9%
Effect on the inhibitory effect of Etoposide on tumor growth (A549-NC tumor; Endostatin 20 mg/kg i.p. once a day and Etoposide 2 mg/kg i.p. once every two days): could not enhance the inhibitory effect of Etoposide on tumor growth
Effect on the inhibitory effect of Etoposide on cell activity (A375 cells): did not significantly enhance the inhibitory effect of Etoposide
Reduction of γH2AX level (repair of DSBs damage) after Etoposide (γH2AX): delayed the reduction of γH2AX level
tumor suppression rate (H1299-NC tumor): 19.6%
Effect on the pro-apoptotic effect of Etoposide (mRNA of pro-apoptotic molecules) [3]: did not significantly enhance the pro-apoptotic effect of Etoposide
Role of Endostatin in promoting apoptosis induced by Etoposide after knocking down DNA-PKcs (H1299 and A549 cells; DNA-PKcs siRNA): weakened
Etoposide-induced apoptosis (H1299 and A549 cells; control siRNA): would further promote Etoposide-induced apoptosis
DNA-PKcs, PARP, γH2AX and Caspase-3 signaling pathway levels [4]: did not affect the above-mentioned signaling pathway levels
Tumor cell proliferation (PCNA) and protein level of DNA-PKcs in tumor tissue [5]: can attenuate tumor cell proliferation to a certain extent and reduce the protein level of DNA-PKcs
median survival time longer than that of the control group (H1299 mouse tumor model): 24.2%
